Measurements: US20090280138A1 (OXFORD BIOMEDICA UK, published 2009)

Columns and labels:
Experiment in all cases: iTopia, multiparametric iScore
[1] = target: T1, MHC class I allele A*0301 monomer (human, biotinylated, bound to streptavidin-coated plate)
T1 construct: also called A3; HLA-A3
Protocol: (§1) The 9 mers were tested for Peptide Binding, Off Rate and Affinity using iTopia Epitope Discovery System in accordance with the manufacturer's instructions. Briefly, 96 well microtitre plates coated with MHC molecules representing different MHC alleles are used to identify candidate peptides. […] Determinations are performed in duplicate using an ELISA plate reader and included allele specific positive controls.
(§2) Finally, multiparametric analysis is performed on the results from these assays and an iScore is generated. The iScore represents a measure of the overall quality of peptide-MHC binding, enabling candidate peptides to be ranked in order of binding quality and allowing rational prioritisation of peptides for functional cellular follow-up studies.

[2] = target: T2, MHC class I allele A*0201 monomer (human, biotinylated, bound to streptavidin-coated plate)
T2 construct: also called A2; HLA-A2
Protocol: as §1, §2

[3] = target: T3, MHC class I allele B*0702 monomer (human, biotinylated, bound to streptavidin-coated plate)
T3 construct: also called B7; HLA-B7
Protocol: as §1, §2

[4] = target: T4, MHC class I allele A*0101 monomer (human, biotinylated, bound to streptavidin-coated plate)
T4 construct: placeholder peptide and b2M removed, then reconstituted with test peptide and fresh b2M; also called A1; HLA-A1
Protocol: as §1, §2

| Binder | iScore [1] | iScore [2] | iScore [3] | iScore [4] |
| --- | --- | --- | --- | --- |
| DCDPILPPS [5T4 9-mer peptide 172] | 0 | 0 | 0 | 0 |
| GKDRLTCAY [5T4 9-mer peptide 159] | 0 | 0 | 0 | 0 |
| YEINADPRL [5T4 9-mer peptide 202] | 0 | 0.077 | 0 | 0 |
| IFLLVLYLN [5T4 9-mer peptide 185] | 0 | 0 | 0 | 0 |
| SYVFLGIVL [5T4 9-mer peptide 178] | 0 | 0.118 | 0.045 | 0 |
| LTNLSSNSD [5T4 9-mer peptide 206] | 0 | 0.027 | 0 | 0 |
| SADLDCDPI [5T4 9-mer peptide 170] | 0 | 0 | 0 | 0 |
| DCHMADMVT [5T4 9-mer peptide 150] | 0 | 0 | 0 | 0 |
| YLNRKGIKK [5T4 9-mer peptide 188] | 0.065 | 0.118 | 0.089 | 0 |
| CAYPEKMRN [5T4 9-mer peptide 162] | 0 | 0 | 0 | 0 |
| NIRDACRDH [5T4 9-mer peptide 194] | 0 | 0 | 0 | 0 |
| ADMVTWLKE [5T4 9-mer peptide 152] | 0 | 0 | 0 | 0 |
| LGIVLALIG [5T4 9-mer peptide 180] | 0 | 0 | 0 | 0 |
| NRVLLELNS [5T4 9-mer peptide 166] | 0 | 0.031 | 0 | 0 |
| MVTWLKETE [5T4 9-mer peptide 153] | 0 | 0.051 | 0 | 0 |
| RDHMEGYHY [5T4 9-mer peptide 197] | 0 | 0 | 0 | 0 |
| TWLKETEVV [5T4 9-mer peptide 154] | 0 | 0.184 | 0 | 0 |
| KGIKKWMHN [5T4 9-mer peptide 190] | 0 | 0 | 0 | 0 |
| VLLELNSAD [5T4 9-mer peptide 167] | 0 | 0.105 | 0 | 0 |
| DRLTCAYPE [5T4 9-mer peptide 160] | 0 | 0 | 0 | 0 |
| DPILPPSLQ [5T4 9-mer peptide 173] | 0 | 0 | 0 | 0 |
| YHYRYEINA [5T4 9-mer peptide 200] | 0 | 0 | 0 | 0 |
| LELNSADLD [5T4 9-mer peptide 168] | 0 | 0 | 0 | 0 |

| Binder | iScore [1] | iScore [2] | iScore [3] | iScore [4] |
| --- | --- | --- | --- | --- |
| MHNIRDACR [5T4 9-mer peptide 193] | 0 | 0.093 | 0 | 0 |
| RDACRDHME [5T4 9-mer peptide 195] | 0 | 0.08 | 0 | 0 |
| LNSADLDCD [5T4 9-mer peptide 169] | 0 | 0 | 0 | 0 |
| EVVQGKDRL [5T4 9-mer peptide 157] | 0 | 0.139 | 0 | 0 |
| EKMRNRVLL [5T4 9-mer peptide 164] | 0 | 0.096 | 0 | 0 |
| DLDCDPILP [5T4 9-mer peptide 171] | 0 | 0 | 0 | 0 |
| QTSYVFLGI [5T4 9-mer peptide 177] | 0 | 0.127 | 0 | 0.027 |
| PPSLQTSYV [5T4 9-mer peptide 175] | 0 | 0.145 | 0 | 0 |
| ACRDHMEGY [5T4 9-mer peptide 196] | 0 | 0 | 0 | 0 |
| ETEVVQGKD [5T4 9-mer peptide 156] | 0 | 0 | 0 | 0 |
| NRKGIKKWM [5T4 9-mer peptide 189] | 0 | 0.138 | 0 | 0 |
| PRLTNLSSN [5T4 9-mer peptide 205] | 0 | 0 | 0 | 0 |
| ADPRLTNLS [5T4 9-mer peptide 204] | 0 | 0 | 0.094 | 0 |
| KWMHNIRDA [5T4 9-mer peptide 192] | 0 | 0.45 | 0 | 0 |
| VQGKDRLTC [5T4 9-mer peptide 158] | 0 | 0.074 | 0 | 0 |
| GAIFLLVLY [5T4 9-mer peptide 184] | 0 | 0 | 0 | 0 |
| MRNRVLLEL [5T4 9-mer peptide 165] | 0 | 0 | 0 | 0 |
| INADPRLTN [5T4 9-mer peptide 203] | 0 | 0 | 0 | 0 |
| YRYEINADP [5T4 9-mer peptide 201] | 0 | 0 | 0 | 0 |
| LKETEVVQG [5T4 9-mer peptide 155] | 0 | 0 | 0 | 0 |
| EGYHYRYEI [5T4 9-mer peptide 199] | 0 | 0 | 0 | 0 |
| IKKWMHNIR [5T4 9-mer peptide 191] | 0 | 0.181 | 0 | 0 |
